According to patent publication US20240352121A1 (NEXTCURE, published 2024):

Key:
[1] = molecular target: human LAIR-1 fused to the zeta chain of CD3, on UT-140 reporter cells (human, UniProt P20963 31-164); test: cell-based or functional assay
[2] = molecular target: T1, LAIR-1 (human; form used for the KD not stated) (human, UniProt Q6GTX8 22-165, limits assumed); test: method not stated (in vitro activity listed in the legend of FIG. 20)
T1 construct: also called Leukocyte Associated Immunoglobulin Like Receptor 1
T1 chain: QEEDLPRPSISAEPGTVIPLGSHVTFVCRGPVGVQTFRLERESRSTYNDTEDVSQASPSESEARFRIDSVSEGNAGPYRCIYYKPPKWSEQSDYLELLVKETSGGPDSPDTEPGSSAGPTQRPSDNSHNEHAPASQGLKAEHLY

[3] = molecular target: T2, human LAIR-1 expressed on cells (293T cells overexpressing human LAIR-1; leukemic cells) (human, UniProt Q6GTX8 22-287); test: cell binding, human LAIR-1 cells (FIG. 20A)
T2 construct: also called human LAIR-1 cells
T2 chain: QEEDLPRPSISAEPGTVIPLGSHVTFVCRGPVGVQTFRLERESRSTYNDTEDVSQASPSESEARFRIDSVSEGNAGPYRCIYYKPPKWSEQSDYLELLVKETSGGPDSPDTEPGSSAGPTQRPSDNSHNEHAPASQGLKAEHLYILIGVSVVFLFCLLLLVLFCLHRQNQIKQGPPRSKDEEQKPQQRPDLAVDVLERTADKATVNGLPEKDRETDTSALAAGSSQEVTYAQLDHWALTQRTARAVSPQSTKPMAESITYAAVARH

B1: h11B3 LAIR-1 mAb, Anti-LAIR-1 Variant 6 (h11B3 VL-2 / h11B3 VH-3) (antibody, V domains shown)
VH: EVQLVESGGGLVQPGGSLKLSCAASGFTFNTNAMYWVRQAPGKGLEWVGRIRSKSSNYATYYAASVKGRFTISRDDSKNTLYLQMNSLKTEDTAVYYCVRGGSGFFAYWGQGTLVTVSS
VL: DIQMTQSPSSLSASLGDRVTITCKASEDIYIRLAWYQQKPGKAPRLLISTATSLETGVPSRFSGSGSGTDYTFTISSLQPEDIATYYCQQYWSTPYTFGGGTRLEIK
notes: In the MV4-11 staining the mAb was AF647-conjugated; also called h11B3v6; humanized 11B3 LAIR-1 mAbs
blocks signaling IC50 [1]: 0.25 nM | Kd [2]: 2.1 nM | EC50 [3]: 0.15 nM
